According to patent US20250051455A1 (Hoffmann-La Roche, published 2025):
Positions count from the first letter of the chain named.

B1: HLA-G-0039 (antibody, V domains shown)
VH: EVQLLESGGGLVQPGGSLRLSCAASGFTFSSYAMNWVRQAPGKGLEWVSVISGSGVSTYYADSVKGRFTISRDNSRNTLSLQMNSLRAEDTAVYYCAKDGSYNYGYGDYFDYWGQGTLVTVSS
VL: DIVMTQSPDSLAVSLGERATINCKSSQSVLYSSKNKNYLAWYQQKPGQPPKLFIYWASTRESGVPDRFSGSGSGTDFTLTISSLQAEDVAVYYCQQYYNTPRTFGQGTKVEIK
notes: Human antibody from humanized OmniRat (OMT) rats
B2: HLA-G-0041 (antibody, V domains shown)
VH: B1 VH with S31T, A33G, N35S, S54G, R76K, S80Y, S85R
VL: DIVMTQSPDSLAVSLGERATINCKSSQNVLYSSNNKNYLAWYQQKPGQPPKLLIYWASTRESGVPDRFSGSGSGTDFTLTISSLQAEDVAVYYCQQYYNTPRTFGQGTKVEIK
notes: as for B1
B3: HLA-G-0090 (antibody, V domains shown)
VH: QVQLQQSGPGLLKPSQTLSLTCAISGDSVSSNRAAWNWIRQSPSRGLEWLGRTYYRSKWYNDYAVSVQGRITLIPDTSKNQFSLRLNSVTPEDTAVYYCASVRAVAPFDYWGQGVLVTVSS
VL: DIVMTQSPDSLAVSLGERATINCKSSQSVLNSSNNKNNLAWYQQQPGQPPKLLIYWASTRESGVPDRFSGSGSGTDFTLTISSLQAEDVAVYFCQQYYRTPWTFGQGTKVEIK
notes: as for B1
B4: HLA-G-0031 (antibody, V domains shown)
VH: QVKLMQSGAALVKPGTSVKMSCNASGYTFTDYWVSWVKQSHGKRLEWVGEISPNSGASNFDENFKDKATLTVDKSTSTAYMELSRLTSEDSAIYYCTRSSHGSFRWFAYWGQGTLVTVSS
VL: AIVLNQSPSSIVASQGEKVTITCRASSSVSSNHLHWYQQKPGAFPKFVIYSTSQRASGIPSRFSGSGSGTSYSFTISRVEAEDVATYYCQQGSSNPYTFGAGTKLELK
notes: Rat monoclonal antibody obtained from CD rats

What was measured:
[1] = target: T1, recombinant soluble human HLA-G β2M MHC class I complex, monomer (human); test: ELISA, biotinylated wt HLA-G monomer on streptavidin plate
T1 construct: His tagged; biotinylated where coated on streptavidin plates, non-biotinylated in SPR; also called HLA-G-0003; wt HLA-G (monomer)
Description: Streptavidin coated plates (Nunc, MicroCoat #11974998001) were coated with 25 μl/well biotinylated human wt HLA-G at a concentration of 250 ng/ml and incubated at 4° C. overnight. After washing (3×90 μl/well with PBST-buffer) 25 μl anti-HLA-G samples (1:3 dilution in OSEP buffer) or reference antibody (G233, Thermo/Pierce #MA1-19449, 500 ng/ml) were added and incubated 1 h at RT. After washing (3×90 μl/well with PBST-buffer) 25 μl/well goat-anti-mouse H+L-POD (Biorad #170-6561, 1:2000 in OSEP) or donkey-anti-rabbit IgG POD (GE #NA9340V, 1:5000 in OSE) was added and incubated at RT for 1 h on shaker. For detection of rat IgGs a mixture of goat-anti-rat IgG1-POD (Bethyl #A110-106P), goat-anti-rat IgG2a-POD (Bethyl #A110-109P) and goat-anti-rat IgG2b-POD (Bethyl #A110-111P) 1:10000 in OSEP was added and incubated at RT for 1 h on shaker. After washing (6×90 μl/well with PBST-buffer) 25 μl/well TMB substrate (Roche, 11835033001) was added and incubated until OD 2-3. Measurement took place on a Tecan Safire 2 instrument at 370/492 nm.
The above table summarizes the binding of different rat anti-human HLA-G monoclonal antibodies, derived from wt protein IMS both of wt as well as OMT rats. Shown are the relative EC50 values [ng/ml] and maximal OD of the respective binding to rec. wt monomeric HLA-G protein or the socalled gegrafted HLA-G (HLA-A consensus sequence on HLA-G backbone) protein as assessed by ELISA. The ELISA was set up by coating the biotinylated wt HLA-G or consensus antigen to strepdavidin plates. After incubation and washing steps, the respective antibodies were bound in a concentration range from 10-0 μg in 1:2 dilution steps. Detection of bound antibodies was carried out by anti-Fc-antibody-POD conjugates. EC50 values were determined from the resulting binding curves at the antibody concentrations generating the half-maximal signal.

[2] = target: T1, recombinant soluble human HLA-G β2M MHC …; test: blocking ELISA on biotinylated wt HLA-G; competitor ILT-4
[3] = target: T1, recombinant soluble human HLA-G β2M MHC …; test: competition ELISA, one antibody concentration; competitor coated ILT4-Fc
Description: (§1) The ELISA was set up by coating the Fc tagged ILT2 and ILT4 respectively to Maxisorp microtiter plates. After incubation and washing steps, the respective antibodies were added at a concentration of 100 nM. Soluble His tagged monomeric, dimeric or trimeric HLA-G was added to the wells. After incubation and washing steps, detection of bound receptor was carried out by anti-His-antibody-POD conjugates.
(§2) The above tables summarize the blocking of interaction between rec. HLA-G proteins (monomer and oligomers) to its receptors ILT2 and ILT4 by the described HLAG antibodies at a concentration of 110 nM (*HLAG-0090 was tested at a concentration of 44 nM) as assessed by ELISA. Shown are the % inhibitions of the HLA-G/receptor interaction (for ILT2 and ILT4). The less pronounced ILT4 inhibition depends on the major β2M dependent interaction of this receptor.

[4] = target: T2, recombinant soluble human HLA-G β2M MHC class I complex, dimer (human); test: as above
T2 construct: Non-biotinylated; also called HLA-G Dimer; dimeric HLA-G
Description: as §1, §2

[5] = target: T3, recombinant soluble human HLA-G β2M MHC class I complex, trimer (human); test: as above
T3 construct: Non-biotinylated; also called HLA-G Trimer; trimeric HLA-G
Description: as §1, §2

[6] = target: T1, recombinant soluble human HLA-G β2M MHC …; test: SPR Biacore T200, antibody captured via anti-Fc, HLA-G monomer as analyte, 25 C
Description: Binding kinetics of anti-HLA-G antibodies to human HLA-G, human HLA-G degrafted and human HLA-A2 were investigated by surface plasmon resonance using a BIACORE T200 instrument (GE Healthcare). All experiments were performed at 25° C. using PBS Buffer (pH 7.4+0.05% Tween20) as running buffer and PBS Buffer (+0.1% BSA) as dilution buffer. Anti-human Fc (JIR009-005-098, Jackson) or anti-rat Fc (JIR112-005-071, Jackson) or anti-Mouse Fc (JIR115-005-071, Jackson) antibodies were immobilized on a Series S CM5 Sensor Chip (GE Healthcare) at pH 5.0 by using an amine coupling kit supplied by GE Healthcare. Anti-HLA-G antibodies were captured on the surface leading to a capturing response of 50-200 RU. HLA-G molecules were injected for 180 s at 30 μl/min with concentrations from 2.5 up to 800 nM (2×1:2 and 4×1:3 dilution series) onto the surface (association phase). The dissociation phase was monitored for 300-600 sec by washing with running buffer. The surface was regenerated by injecting H3PO4 (0,85%) for 60+30 seconds for anti-human Fc capturing antibodies, glycine pH1,5 for 60 seconds and glycine pH2,0 for 60 seconds for anti-rat Fc capturing antibodies, H3PO4 (0,85%) for 80+60 seconds for anti-mouse Fc capturing antibodies. Bulk refractive index differences were corrected by subtracting the response obtained from a mock surface. Blank injections were subtracted (double referencing). The derived curves were fitted to a 1:1 Langmuir binding model using the BIAevaluation software.
The above table summarizes the antibody affinities and t½ values against wt and degrafted HLA-G as assessed by Surface plasmon resonance (Biacore) analysis. Binding kinetics of anti-HLA-G antibodies to human HLA-G and human HLA-G degrafted were investigated by surface plasmon resonance using a BIACORE T200 instrument (GE Healthcare). All experiments were performed at 25° C. using PBS Buffer (pH 7.4+0.05% Tween20) as running buffer and PBS Buffer (+0.1% BSA) as dilution buffer. Anti-human Fc (JIR009-005-098, Jackson) or anti-rat Fc (JIR112-005-071, Jackson) or anti-Mouse Fc (JIR115-005-071, Jackson) antibodies were immobilized on a Series S CM5 Sensor Chip (GE Healthcare) at pH 5.0 by using an amine coupling kit supplied by GE Healthcare.

Binder | Max. OD [1] [OD] | % inh. ILT4 (3 µg/ml antibody) [2] [%] | % inhibition of ILT4 binding [3] [%] | % inhibition of ILT4 binding [4] [%] | % inhibition of ILT4 binding [5] [%] | Kd [6] [nM] | koff [6] [s⁻¹] | kon [6] [M⁻¹ s⁻¹] | t 1/2 [6] [min]
B1 | 1.4 | 23.9 | -224 | -105 | -43 | 0.95 | 0.00044 | 460000 | 27
B2 | 2.3 | 18.4 | -184 | -113 | -39 | 1.3 | 0.00049 | 380000 | 23
B3 | 3.4 | – | – | – | – | 3.6 | 0.00085 | 230000 | 14
B4 | 1.6 | 39.8 | 17 | 54 | 68 | 75 | 0.0037 | 49000 | 3
